Data on eleven molecules can be found in paper PMC9888711, “Pneumococcal capsule expression is controlled through a conserved, distal cis-regulatory element during infection” (PLOS Pathogens, 2023).

In data set [1] the target is SpxR (SPD_0969), full-length recombinant (Streptococcus pneumoniae D39). The experiment in a line: SEC-MALS; Superdex 200 Increase 10/300 GL, 50 mM Tris-Cl pH 7.0, 500 mM NaCl, 1 mM TCEP, 70 uM, 25 C; no DNA. A general note: SEC sorts molecules by how far they enter the pores of the column.
Data set [2] shares this target. The experiment in a line: SEC; Superose 6 Increase 10/300 GL, 50 mM Tris-Cl pH 7.0, 500 mM NaCl, 1 mM TCEP; 300 uL at 70 uM; calibrated with molecular weight standards.
For data set [3] the target is unchanged. The experiment in a line: negative stain electron microscopy; SpxR with 37-CE DNA in high salt (50 mM Tris pH 7.0, 500 mM NaCl, 1 mM TCEP); 3D reconstruction, C2 symmetry, 20.9 A.
The target is the same in data set [4]. Nature of the data set: negative stain electron microscopy; SpxR with 37-CE DNA in low salt (final 50 mM NaCl, HEPES pH 7.5, 5 mM MgCl2, 1 mM CaCl2); 3D reconstruction, C3 symmetry, 21.5 A.
The target in data set [5] is T1, SpxRDBD (Streptococcus pneumoniae D39, UniProt A0A0H2ZR90 1-63). The experiment in a line: EMSA; EMSA: 20 mM HEPES pH 7.2, 50 mM NaCl, 5 mM MgCl2, 1 mM CaCl2, 0.1 mM EDTA, 12% glycerol, 10 mM DTT, 0.5 uM DNA, 400 ng poly(dI-dC); FP: same salts, 2% glycerol, 10 nM DNA (high salt 500 mM NaCl; Fig 5 legend says Tris pH 7.0); temperature not stated. As to conditions: protein: recombinant; tags: His6-SUMO removed by Ulp1; label: 6-FAM forward; blunt. (A gel shift assay detects complexes by their altered migration in electrophoresis.)

The target in data set [6] is T2, CpsR (Streptococcus pneumoniae D39, UniProt A0A0H2ZMA3 1-247). The data set is described as above. The note with it: protein: recombinant; tags: His6-SUMO removed by Ulp1; chain copies: 2; label: 6-FAM forward; blunt.
Data set [7] deals with T3, SpxR (Streptococcus pneumoniae D39, UniProt A0A0H2ZR90 1-425). Nature of the data set: fluorescence polarization; 50 mM NaCl; EMSA: 20 mM HEPES pH 7.2, 50 mM NaCl, 5 mM MgCl2, 1 mM CaCl2, 0.1 mM EDTA, 12% glycerol, 10 mM DTT, 0.5 uM DNA, 400 ng poly(dI-dC); FP: same salts, 2% glycerol, 10 nM DNA (high salt 500 mM NaCl; Fig 5 legend says Tris pH 7.0); temperature not stated. As to conditions: protein: recombinant; tags: His6-SUMO removed by Ulp1; chain copies: 3; label: 6-FAM forward; blunt.

Data set [8] deals with the molecule itself. The experiment in a line: SEC; Superose 6 Increase 10/300 GL, 50 mM Tris-Cl pH 7.0, 500 mM NaCl, 1 mM TCEP; 300 uL at 70 uM; calibrated with molecular weight standards.
Data set [9] has as its target T3, SpxR. The experiment in a line: EMSA; shift begins at 312 nM protein; competed by unlabeled 37-CE; EMSA: 20 mM HEPES pH 7.2, 50 mM NaCl, 5 mM MgCl2, 1 mM CaCl2, 0.1 mM EDTA, 12% glycerol, 10 mM DTT, 0.5 uM DNA, 400 ng poly(dI-dC); FP: same salts, 2% glycerol, 10 nM DNA (high salt 500 mM NaCl; Fig 5 legend says Tris pH 7.0); temperature not stated. As to conditions: protein: recombinant; tags: His6-SUMO removed by Ulp1; chain copies: 3; label: 6-FAM on forward strand 5' (EMSA, FP); blunt.

The target in data set [10] is T2, CpsR. The experiment in a line: EMSA; shift begins at 625 nM protein; competed by unlabeled 37-CE; EMSA: 20 mM HEPES pH 7.2, 50 mM NaCl, 5 mM MgCl2, 1 mM CaCl2, 0.1 mM EDTA, 12% glycerol, 10 mM DTT, 0.5 uM DNA, 400 ng poly(dI-dC); FP: same salts, 2% glycerol, 10 nM DNA (high salt 500 mM NaCl; Fig 5 legend says Tris pH 7.0); temperature not stated. The note with it: protein: recombinant; tags: His6-SUMO removed by Ulp1; chain copies: 2; label: 6-FAM on forward strand 5' (EMSA, FP); blunt.

Data set [11] concerns the target T1, SpxRDBD. The experiment in a line: EMSA; second to 5'+10; EMSA: 20 mM HEPES pH 7.2, 50 mM NaCl, 5 mM MgCl2, 1 mM CaCl2, 0.1 mM EDTA, 12% glycerol, 10 mM DTT, 0.5 uM DNA, 400 ng poly(dI-dC); FP: same salts, 2% glycerol, 10 nM DNA (high salt 500 mM NaCl; Fig 5 legend says Tris pH 7.0); temperature not stated. The note with it: protein: recombinant; tags: His6-SUMO removed by Ulp1; label: 6-FAM forward; blunt.

The target of data set [12] is T1, SpxRDBD. The experiment in a line: EMSA; strongest of the extended truncations; EMSA: 20 mM HEPES pH 7.2, 50 mM NaCl, 5 mM MgCl2, 1 mM CaCl2, 0.1 mM EDTA, 12% glycerol, 10 mM DTT, 0.5 uM DNA, 400 ng poly(dI-dC); FP: same salts, 2% glycerol, 10 nM DNA (high salt 500 mM NaCl; Fig 5 legend says Tris pH 7.0); temperature not stated. As to conditions: protein: recombinant; tags: His6-SUMO removed by Ulp1; label: 6-FAM forward; blunt.

Values joined by “and” are separate entries in the source; they are usually repeats but may differ in a detail not shown here. Identical values can stand only once.

In general, stoichiometry N refers to a count of units in the complex or per binding partner. “SpxR (SPD_0969), full-length recombinant (natural protein)”: the stoichiometry N in data set [1] is 4 and 8; in data set [2] it was 4; in [3], 4; in data set [4], 3.

B1: 21-CE Neither (dsDNA)
DNA 1: GTGTGAGAGAGTAGTTTGAAA
DNA 2: TTTCAAACTACTCTCTCACAC
With B1, the binding result with SpxRDBD [5] and with CpsR [6] was “no binding” in each case.

B2: 21-CE CpsR-only (dsDNA)
DNA 1: GTGTGAGATATTATATTGAAA
DNA 2: TTTCAATATAATATCTCACAC
As usually defined, the Kd is a measure of binding affinity in units of concentration. Regarding B2, the binding result in the data set with SpxRDBD [5] was “no binding”. For the same molecule, in the data set with SpxR [7], the equilibrium dissociation constant (Kd) came out at 104 nM.

B3: 21-CE (dsDNA)
DNA 1: GTGTACTATATTATATTGAAA
DNA 2: TTTCAATATAATATAGTACAC
In the case of B3, in the data set with SpxR [7], the dissociation constant (Kd) is 71 nM.

B4: CpsR (SPD_0064), recombinant (natural protein)
chain: MEKENRGKNMAIPKYQYIKDELKNKIISGQFSSGDKFYTEAELISMYDVSSITVVRALNDLAKDGYIVRQQGKGTFVSRARKHKLVEFSDIELFNAKDDKVTVLSIERGNKLVYLEKLGLRGDQFYYKIERIRESNGVVYIYHTSYIPEQYINANYPNLEYYSSIYNRFKLDYHIHMNDEHFEEINEIVFPTPEHAASVLGVDEQFPTVLQTKITKLESTGQVLEYSETYKRSDYYKIKFISCDRDH
notes: CpsR (also called AgaR), transcription factor of Streptococcus pneumoniae D39, locus SPD_0064; 65.72 kDa as a dimer; cpsR amplified from D39 genomic DNA into pE-SUMO; also called AgaR; source: E. coli T7 Express lysY/Iq, purified (Ni-NTA, Ulp1 cleavage, SEC)
Consider B4, for which the “stoichiometry N” value in data set [8] was 2.

B5: 37-CE (dsDNA)
DNA 1: TGTGTACTATATTATATTGAAACTAGAATAGTACACA
DNA 2: TGTGTACTATTCTAGTTTCAATATAATATAGTACACA
Consider B5, for which the binding result in the data set with SpxR [9] and with CpsR [10] was “binds” in each case.

B6: 37-CE spacer (17 bp) (dsDNA)
DNA 1: ATTATATTGAAACTAGA
DNA 2: TCTAGTTTCAATATAAT
Turning to B6, the binding result with SpxRDBD [5] and with CpsR [6] was “no binding” in each case.

B7: 37-CE 3'+10 (dsDNA)
DNA 1: TGAAACTAGAATAGTACACA
DNA 2: TGTGTACTATTCTAGTTTCA
Turning to B7, the binding result is recorded as “no binding” with CpsR [6] and “binds” in the data set with SpxRDBD [11].

B8: 37-CE 5'+10 (dsDNA)
DNA 1: TGTGTACTATATTATATTGA
DNA 2: TCAATATAATATAGTACACA
On to B8, for which the binding result in the data set with CpsR [6] and with SpxRDBD [12] was “binds” each time.

B9: 21-CE SpxR-only (dsDNA)
DNA 1: GTGTACTAGAGTAGTTTGAAA
DNA 2: TTTCAAACTACTCTAGTACAC
B9: the binding result with CpsR [6] is “no binding”. Further, the Kd with SpxR [7] was determined as 56 nM.

B10: 37-CE 5' (10 bp) (dsDNA)
DNA 1: TGTGTACTAT
DNA 2: ATAGTACACA
In the case of B10, the binding result with SpxRDBD [5] and in the data set with CpsR [6] was “no binding” each time.
